Test results published in PMC9646914, “Nicking mechanism underlying the DNA phosphorothioate-sensing antiphage defense by SspE” (Nature Communications, 2022).

Experiments:
[1] = system: SspE (Streptomyces yokosukanensis DSM 40224); assay: MST; settings: EMSA: 10 mM Tris-HCl pH 8.0 (20 mM in Fig 3 legend), 100 mM NaCl, 0.01 mM EDTA, 5% glycerol, 15 min 30 C, MST: 10 mM Tris-HCl pH 8.0, 100 mM NaCl, 12.5 nM DNA …
SspE = target: T1, SspE (Streptomyces yokosukanensis, UniProt A0A6I8WFL9); assay: malachite green phosphate release (QuantiChrom ATPase/GTPase kit); assay type: biochemical; settings: 100 uM GTP, 1 uM protein, alone or with 1 uM 40-bp DNA with or without phosphorothioate; Mg acetate 10 mM, pH 7.9, 28 C
T1 construct: full length, 771 residues (2,313-bp gene); NTD 1-324 GTPase (DGQQR motif 96-100), CTD 332-771 HNH nickase; expressed in E. coli BL21(DE3), Ni-NTA and Superdex 200
T1 sequence (A0A6I8WFL9 entry or part of it): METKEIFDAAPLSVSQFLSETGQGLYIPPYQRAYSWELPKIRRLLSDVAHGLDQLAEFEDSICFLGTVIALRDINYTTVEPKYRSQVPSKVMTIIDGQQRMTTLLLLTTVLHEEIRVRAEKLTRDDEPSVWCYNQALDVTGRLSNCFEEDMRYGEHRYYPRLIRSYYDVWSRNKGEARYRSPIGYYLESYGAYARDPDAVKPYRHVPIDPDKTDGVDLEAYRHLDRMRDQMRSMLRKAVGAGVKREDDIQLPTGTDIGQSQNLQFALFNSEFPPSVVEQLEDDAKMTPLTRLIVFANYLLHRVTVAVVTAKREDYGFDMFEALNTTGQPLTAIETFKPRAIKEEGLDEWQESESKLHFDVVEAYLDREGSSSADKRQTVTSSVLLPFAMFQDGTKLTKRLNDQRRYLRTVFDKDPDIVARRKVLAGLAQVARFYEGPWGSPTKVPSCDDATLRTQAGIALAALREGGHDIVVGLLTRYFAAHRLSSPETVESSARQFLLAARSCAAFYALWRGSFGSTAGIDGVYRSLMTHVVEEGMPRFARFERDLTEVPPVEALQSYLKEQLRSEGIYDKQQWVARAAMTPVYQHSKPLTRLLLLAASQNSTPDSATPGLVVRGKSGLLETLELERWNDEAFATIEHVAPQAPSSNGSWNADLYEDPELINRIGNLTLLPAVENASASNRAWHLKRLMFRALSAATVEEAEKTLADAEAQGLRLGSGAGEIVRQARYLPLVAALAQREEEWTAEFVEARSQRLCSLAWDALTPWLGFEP

[2] = system: SspE K40A (Streptomyces yokosukanensis DSM 40224); assay: EMSA; settings: EMSA: 10 mM Tris-HCl pH 8.0 (20 mM in Fig 3 legend), 100 mM NaCl, 0.01 mM EDTA, 5% glycerol, 15 min 30 C; MST: 10 mM Tris-HCl pH 8.0, 100 mM NaCl, 12.5 nM DNA …
[3] = system: SspE-CTD (Streptomyces yokosukanensis DSM 40224); assay: EMSA; settings: EMSA: 10 mM Tris-HCl pH 8.0 (20 mM in Fig 3 legend), 100 mM NaCl, 0.01 mM EDTA, 5% glycerol, 15 min 30 C; MST: 10 mM Tris-HCl pH 8.0, 100 mM NaCl, 12.5 nM DNA …
[4] = system: SspE (Streptomyces yokosukanensis DSM 40224); assay: EMSA; settings: EMSA: 10 mM Tris-HCl pH 8.0 (20 mM in Fig 3 legend), 100 mM NaCl, 0.01 mM EDTA, 5% glycerol, 15 min 30 C; MST: 10 mM Tris-HCl pH 8.0, 100 mM NaCl, 12.5 nM DNA …

Q: 2-kb PT DNA (CpsCA at both termini) was tested. Which Kd ([1]; phosphorothioate C12-C13 of primer #7 and C17-C18 of primer #8) did it give?
A: 8.5 µM

Q: For 2-kb non-PT DNA (CCA), which Kd [1] is on record?
A: 18.4 µM

Q: For Nc1nc2c(ncn2[C@@H]2O[C@H](COP(=O)(O)OP(=O)(O)OP(=O)(O)O)[C@@H](O)[C@H]2O)c(=O)[nH]1 [GTP], which GTPase activity (SspE) is on record?
A: The GTP hydrolysis activity of SspE and its mutants was assayed

Q: For linearized pUC19, which Kd [2] is on record?
A: 22.2 µM

Q: And the Kd [3]?
A: 3 µM

Q: And the Kd [4]?
A: 17.8 µM
